Test results reported in US8604172B2, “Humanized antibody compositions and methods for binding lysophosphatidic acid” (Lpath, Inc., priority 2009, dated 2013).

Experiments:
[1] = Competition ELISA (18:1 LPA coat), competitor 20:4 LPA; type: binding; conditions: maximum inhibition
Experimental: Many isoforms of LPA have been identified to be biologically active and it is preferable that the mAb recognize all of them to some extent to be of therapeutic relevance. The specificity of the anti-LPA mAbs was evaluated utilizing a competition assay in which the competitor lipid was added to the antibody-immobilized lipid mixture.
Competition ELISA assays were performed with the anti-LPA mAbs to assess their specificity. 18:1 LPA was captured on ELISA plates. Each competitor lipid (up to 10 uM) was serially diluted in BSA (1 mg/ml)-PBS and then incubated with the mAbs (3 nM). Mixtures were then transferred to LPA coated wells and the amount of bound antibody was measured with a secondary antibody. Data are normalized to maximum signal (A450) and are expressed as percent inhibition. Assays were performed in triplicate. IC50: Half maximum inhibition concentration; MI: Maximum inhibition (% of binding in the absence of inhibitor); - - -: not estimated because of weak inhibition. A high inhibition result indicates recognition of the competitor lipid by the antibody.

[2] = system: IL-8 release in SKOV3 cells; assay: LPA-induced IL-8 release in SKOV3 cells; type: cell-based, human
Experimental: Anti-LPA antibodies inhibit the LPA-dependant release of human CXCL8/IL-8 in conditioned media of SKOV3 ovarian cells. SKOV3 cells (Lot No 4255558, passage 14) were harvested with 2 ml of 1× Trypsin EDTA (Mediatech Inc, Cat. No 25-053-CV) and resuspended in 8 ml of complete medium (10% FBS, Mediatech Inc. Cat. no 35-011-CV). The cells were centrifuged for 5 min ([…]) and re-suspended in 5 ml of complete medium. Cells were counted in duplicate with 0.4% Trypan blue (10 ul cells plus 90 ul Trypan blue, Invitrogen, Cat. No 15250-061) using a hemocytometer. In a 96-well plate, 1×10^5 cells per well were seeded (final volume 100 ul/well). The cells were allowed to attach and form a confluent monolayer by incubating overnight at 37° C. On the following day, cells were gently washed two times with minimum media (1 mg/ml BSA in McCoy's medium with L-glutamine, Mediatech, Cat. No 10-050-CV). The media was adjusted to 1% penicillin/streptomycin (Mediatech, Cat. No 30-002 CI) and 2.2 g/L sodium-bicarbonate (Mediatech, Cat. No 25-035-CI). Next, the cells were serum-starved at 37° C. for exactly 24 h, followed by cytokine stimulation with 1 uM C18:1 LPA (Avanti, Cat. No 857130) dissolved in 1 mg/ml BSA/PBS (Calbiochem, Cat. No 126575) which was pre-incubated in presence or absence of humanized LPA antibody LT3015 (150, 300 or 600 ug/mL) for one hour. Treatments were then added to the cells. After 22 h of cytokine stimulation, the cells were centrifuged for 5 min (13,500 rpm) at 4° C. and the supernatants (cell-conditioned media) were collected. The CXCL8/IL-8 levels in each supernatant were measured using the Quantikine human CXCL8/IL-8 ELISA kit according to vendor instructions (R&D Systems, Minneapolis Minn., Cat. No D8000C). The IL-6 levels were measured by ELISA using the Quantikine human IL-6 immunoassay kit (R&D systems, Cat. No. D6050). Data were analyzed by one-way ANOVA followed by Bonferroni's post test and expressed as human IL-8 or human IL-6 fold increase.

[3] = system: B16-F10 murine melanoma; assay: B16-F10 murine melanoma experimental lung metastasis; parameters: species or system C57BL/6 mice; conditions: mouse, in vivo
Experimental: Study: The highly metastatic murine melanoma (B16-F10) was used to examine the therapeutic effect of anti-LPA mAbs on metastasis in vivo. […] 4 week old female (C57BL/6) mice received an injection of B16-F10 murine melanoma tumor cells (100 uL of 5×10^4 cells/animal) via the tail vein. Mice (10 per group) were administered 25 mg/kg of the anti-LPA mAb (either B3 or B7) or saline every three days by i.p. injection. After 18 days, lungs were harvested and analyzed. The pulmonary organs are the preferred metastatic site of the melanoma cells, and were therefore closely evaluated for metastatic nodules. The lungs were inflated with 10% buffered formalin via the trachea, in order to inflate and fix simultaneously, so that even small foci could be detectable on histological examination. Lungs were separated into five lobes and tumors were categorized by dimension (large >5 mm; medium 1-4 mm; small <1 mm) and counted under a dissecting microscope. […] For animals treated with mAb B3, large tumors were reduced by 21%, medium tumors by 17% and small tumors by 22%. Statistical analysis by student's T-test gave a p<0.05 for number of small tumors in animals treated with mAb B3 vs saline.

[4] = Safety, 7 day intravenous injection; type: in vivo, C57BL/6N mice; conditions: for triglycerides / liver weights: mean±SD; for triglycerides: in mg/dL (unit assumed); for liver weights: in g (unit assumed)
Excerpt: Objective. This study assessed the safety of Lpathomab following intravenous injection of the antibody. C57BL/6N mice received Lpathomab (LT3000) for 7 consecutive days followed by a 7 day recovery period for selected animals of each treatment (recovery groups). Blood samples were collected and processed for multiple study parameters including classical hematology, coagulation time and clinical chemistry. Selected organs were weighed and compared with vehicle only controls.
Study design. Once a day, single iv bolus injections of Lpathomab or vehicle control were given at the following doses: 0, 30, 60, 120, and 240 mg/kg. […] For each animal, necropsy consisted of an external examination, including identification of all clinically recorded lesions, as well as a detailed internal examination.

[5] = Direct binding ELISA of anti-LPA mAbs to 18:1 LPA
Experimental: The binding of 6 anti-LPA mAbs (B3, B7, B58, A63, B3A6, D22) to 12:0 and 18:1 LPA (0.1 uM) was measured by ELISA. EC50 values were calculated from titration curves using 6 increasing concentrations of purified mAbs (0 to 0.4 ug/ml). EC50 represents the effective antibody concentration with 50% of the maximum binding. Max denotes the maximal binding (expressed as OD450).

[6] = BiaCore surface plasmon resonance and direct binding ELISA of LT3000
Excerpt: The murine antibody is a full-length IgG1k isotype antibody composed of two identical light chains and two identical heavy chains with a total molecular weight of 155.5 kDa.

[7] = 30-240 mg/kg iv daily x 7 vs control

B1: LT3000: Murine anti-LPA monoclonal antibody clone B7, IgG1k, renamed Lpathomab, also known as LT3000; hybridoma 504B7.1, ATCC PTA-8420 (antibody, V domains shown)
VH: QVQLQQSGAELVRPGTSVKVSCKASGYGFINYLIEWIKQRPGQGLEWIGLINPGSDYTNYNENFKGKATLTADKSSSTAYMHLSSLTSEDSAVYFCARRFGYYGSGNYFDYWGQGTTLTVSS
VL: DVVMTQTPLSLPVSLGDQASISCTSGQSLVHINGNTYLHWYLQKPGQSPKLLIYKVSNLFSGVPDRFSGSGSGTDFTLKISRVEAEDLGVYFCSQSTHFPFTFGTGTKLEIK
MI, 20:4 LPA [1]: 67% | IL-8 Release, % Inhibition (over LPA taken as 100) ([2]; Lpathomab 300 μg/mL, 1 μM 18:1 LPA, n = 3): 20% | IL-8 release from ovarian cancer cells ([2]; in vitro): reduced IL-8 release from ovarian cancer cells in a concentration-dependent manner | metastatic spread of B16-F10 cells to lungs [3]: reduced | weights of brains, hearts, lungs, pituitary glands, ovaries, spleens, testes, thymus glands, thyroid or uterus ([4]; 30-240 mg/kg iv daily x 7): No changes were observed | glucose, cholesterol, ALT or other CBC parameters [4, 7]: no statistically significant reductions | hematology parameters [4, 7]: no significant differences | triglycerides ([4]; female mice, 120 mg/kg iv daily x 7, vehicle 89±17): 36±8 | triglycerides ([4]; female mice, 240 mg/kg iv daily x 7, vehicle 89±17): 46±18 | liver weights ([4]; female mice, 240 mg/kg, vehicle 1.2±0.27): 0.89±0.26 | liver weights ([4]; male mice, 60 mg/kg, vehicle 1.28±0.06): 1.03±0.07 | liver weights ([4]; male mice, 120 mg/kg, vehicle 1.28±0.06): 1.08±0.11 | triglycerides ([4]; male mice, 240 mg/kg iv daily x 7, vehicle 133±24): 50±8 | liver weights ([4]; male mice, 240 mg/kg, vehicle 1.28±0.06): 1.11±0.11 | EC50 ([5]; 18:1 LPA 0.1 uM, mAb 0 to 0.4 ug/ml): 0.274 nM | Max (OD450), 18:1 LPA ([5]; maximal binding): 0.973 OD450 | Kd [6]: 0.001 to 0.05 nM
